Substrate in this data set: Nc1ncnc2c1ncn2[C@@H]1O[C@H](COP(=O)(O)OP(=O)(O)OP(=O)(O)O)[C@@H](O)[C@H]1O
Description: single-molecule fluorescence (FRET / SNAP649 dwell time), Michaelis-Menten fit of k1 versus ATP. It counts as biochemical, Saccharomyces cerevisiae. The following applies: k1 step: ATP-dependent translocation on nascent RNA to stalled Pol II TEC (bioPol II/RNA-Cy3/DNA or Pol II/RNA-Cy3/bioDNA, 28 bp transcription unit); 10 nM Sen1 HD-SNAP649, 2 nM TFIIS, UTP and CTP, 20; pH 8.0.

B1: Sen1 HD-SNAP649 (Sen1 helicase domain) (Saccharomyces cerevisiae S288C) (protein)
chain: AELAKQELEHMRKRLNVDMNPLYEIILQWDYTRNSEYPDDEPIGNYSDVKDFFNSPADYQKVMKPLLLLESWQGLCSSRDREDYKPFSIIVGNRTAVSDFYDVYASVAKQVIQDCGISESDLIVMAYLPDFRPDKRLSSDDFKKAQHTCLAKVRTLKNTKGGNVDVTLRIHRNHSFSKFLTLRSEIYCVKVMQMTTIEREYSTLEGLEYYDLVGQILQAKPSPPVNVDAAEIETVKKSYKLNTSQAEAIVNSVSKEGFSLIQGPPGTGKTKTILGIIGYFLSTKNASSSNVIKVPLEKNSSNTEQLLKKQKILICAPSNAAVDEICLRLKSGVYDKQGHQFKPQLVRVGRSDVVNVAIKDLTLEELVDKRIGERNYEIRTDPELERKFNNAVTKRRELRGKLDSESGNPESPMSTEDISKLQLKIRELSKIINELGRDRDEMREKNSVNYRNRDLDRRNAQAHILAVSDIICSTLSGSAHDVLATMGIKFDTVIIDEACQCTELSSIIPLRYGGKRCIMVGDPNQLPPTVLSGAASNFKYNQSLFVRMEKNSSPYLLDVQYRMHPSISKFPSSEFYQGRLKDGPGMDILNKRPWHQLEPLAPYKFFDIISGRQEQNAKTMSYTNMEEIRVAIELVDYLFRKFDNKIDFTGKIGIISPYREQMQKMRKEFARYFGGMINKSIDFNTIDGFQGQEKEIILISCVRADDTKSSVGFLKDFRRMNVALTRAKTSIWVLGHQRSLAKSKLWRDLIEDAKDRSCLAYACSGFLDPRNNRAQSILRKFNVPVPSEQEDDYKLPMEYITQGPDEVKSN
notes: helicase domain, residues 1095-1904; C-terminal PreScission site, SNAP-tag and 10xHis-tag kept, labelled with SNAP-Surface 649; expressed in E. coli BL21(DE3) codon plus RIPL; single molecule acts
For B1, the Km is recorded as 40 ± 15 µM.

For orientation: Km means the substrate concentration at which the rate is half of its maximum.

These data come from publication PMC11180205, “Single-molecule reconstruction of eukaryotic factor-dependent transcription termination” (Nature Communications, 2024).
